# Where a chain is given by its changes, count along the chain named. Names may count otherwise.
# T1: MBP-AGO10 NC (127-336) (A. thaliana, UniProt Q9XGW1 127-336)
# T1 construct: source: E. coli BL21 (DE3), purified (amylose resin); not shown: MBP, N-terminal, kept
# T1 sequence (looked up): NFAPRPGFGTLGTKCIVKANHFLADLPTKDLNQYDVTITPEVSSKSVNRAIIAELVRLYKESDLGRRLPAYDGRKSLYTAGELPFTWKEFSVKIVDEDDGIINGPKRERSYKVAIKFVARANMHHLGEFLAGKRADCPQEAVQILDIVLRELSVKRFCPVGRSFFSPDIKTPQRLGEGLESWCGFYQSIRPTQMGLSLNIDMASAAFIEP
# T2: MBP-AGO10 (A. thaliana, UniProt Q9XGW1 1-988)
# T2 construct: ARGONAUTE 10 (AGO10), A. thaliana; source: E. coli BL21 (DE3), purified (amylose resin); not shown: MBP, N-terminal, kept
# T2 sequence (looked up): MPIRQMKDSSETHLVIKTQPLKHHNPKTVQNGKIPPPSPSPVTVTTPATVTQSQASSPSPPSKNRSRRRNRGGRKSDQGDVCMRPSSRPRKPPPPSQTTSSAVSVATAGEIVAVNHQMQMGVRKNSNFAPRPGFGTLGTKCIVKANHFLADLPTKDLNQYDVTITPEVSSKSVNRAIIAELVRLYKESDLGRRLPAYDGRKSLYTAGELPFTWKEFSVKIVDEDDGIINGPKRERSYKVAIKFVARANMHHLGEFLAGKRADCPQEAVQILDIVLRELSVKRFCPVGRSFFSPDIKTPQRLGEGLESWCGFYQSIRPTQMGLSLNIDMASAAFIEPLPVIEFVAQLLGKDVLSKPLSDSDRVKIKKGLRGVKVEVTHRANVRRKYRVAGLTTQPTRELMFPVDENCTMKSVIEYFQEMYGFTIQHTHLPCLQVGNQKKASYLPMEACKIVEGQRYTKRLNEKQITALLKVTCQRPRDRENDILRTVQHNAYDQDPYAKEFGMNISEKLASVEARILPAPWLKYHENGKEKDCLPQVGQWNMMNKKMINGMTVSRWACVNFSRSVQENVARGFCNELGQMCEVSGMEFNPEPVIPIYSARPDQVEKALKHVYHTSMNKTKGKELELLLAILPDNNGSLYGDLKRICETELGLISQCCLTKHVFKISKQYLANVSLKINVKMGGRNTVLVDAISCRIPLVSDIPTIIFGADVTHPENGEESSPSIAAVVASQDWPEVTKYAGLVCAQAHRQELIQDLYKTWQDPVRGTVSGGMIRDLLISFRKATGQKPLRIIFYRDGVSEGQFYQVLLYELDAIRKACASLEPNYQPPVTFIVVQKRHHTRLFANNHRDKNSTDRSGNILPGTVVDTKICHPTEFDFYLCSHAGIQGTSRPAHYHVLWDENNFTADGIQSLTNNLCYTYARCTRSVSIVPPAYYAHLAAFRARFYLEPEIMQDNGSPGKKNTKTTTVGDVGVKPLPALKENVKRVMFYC
# T3: MBP-AGO10 PIWI (625-988) (A. thaliana, UniProt Q9XGW1 625-988)
# T3 construct: AGO10, A. thaliana, residues 625-988 (PIWI); source: E. coli BL21 (DE3), purified (amylose resin); not shown: MBP, N-terminal, kept
# T3 sequence (looked up): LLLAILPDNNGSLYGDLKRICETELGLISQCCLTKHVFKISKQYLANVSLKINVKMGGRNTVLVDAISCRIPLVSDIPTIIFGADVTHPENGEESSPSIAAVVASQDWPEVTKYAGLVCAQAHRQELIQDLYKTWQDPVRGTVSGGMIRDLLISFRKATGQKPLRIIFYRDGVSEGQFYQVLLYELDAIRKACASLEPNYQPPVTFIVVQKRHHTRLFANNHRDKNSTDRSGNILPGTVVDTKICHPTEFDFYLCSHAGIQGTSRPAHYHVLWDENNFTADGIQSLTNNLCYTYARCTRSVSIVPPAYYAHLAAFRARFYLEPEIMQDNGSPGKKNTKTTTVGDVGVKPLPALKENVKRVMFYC
# T4: MBP-AGO1 (A. thaliana, UniProt O04379 1-1048)
# T4 construct: ARGONAUTE 1 (AGO1), A. thaliana; purified as described in Zhang et al., 2006b; source: E. coli, purified (amylose resin); not shown: MBP, N-terminal, kept
# T4 sequence (looked up): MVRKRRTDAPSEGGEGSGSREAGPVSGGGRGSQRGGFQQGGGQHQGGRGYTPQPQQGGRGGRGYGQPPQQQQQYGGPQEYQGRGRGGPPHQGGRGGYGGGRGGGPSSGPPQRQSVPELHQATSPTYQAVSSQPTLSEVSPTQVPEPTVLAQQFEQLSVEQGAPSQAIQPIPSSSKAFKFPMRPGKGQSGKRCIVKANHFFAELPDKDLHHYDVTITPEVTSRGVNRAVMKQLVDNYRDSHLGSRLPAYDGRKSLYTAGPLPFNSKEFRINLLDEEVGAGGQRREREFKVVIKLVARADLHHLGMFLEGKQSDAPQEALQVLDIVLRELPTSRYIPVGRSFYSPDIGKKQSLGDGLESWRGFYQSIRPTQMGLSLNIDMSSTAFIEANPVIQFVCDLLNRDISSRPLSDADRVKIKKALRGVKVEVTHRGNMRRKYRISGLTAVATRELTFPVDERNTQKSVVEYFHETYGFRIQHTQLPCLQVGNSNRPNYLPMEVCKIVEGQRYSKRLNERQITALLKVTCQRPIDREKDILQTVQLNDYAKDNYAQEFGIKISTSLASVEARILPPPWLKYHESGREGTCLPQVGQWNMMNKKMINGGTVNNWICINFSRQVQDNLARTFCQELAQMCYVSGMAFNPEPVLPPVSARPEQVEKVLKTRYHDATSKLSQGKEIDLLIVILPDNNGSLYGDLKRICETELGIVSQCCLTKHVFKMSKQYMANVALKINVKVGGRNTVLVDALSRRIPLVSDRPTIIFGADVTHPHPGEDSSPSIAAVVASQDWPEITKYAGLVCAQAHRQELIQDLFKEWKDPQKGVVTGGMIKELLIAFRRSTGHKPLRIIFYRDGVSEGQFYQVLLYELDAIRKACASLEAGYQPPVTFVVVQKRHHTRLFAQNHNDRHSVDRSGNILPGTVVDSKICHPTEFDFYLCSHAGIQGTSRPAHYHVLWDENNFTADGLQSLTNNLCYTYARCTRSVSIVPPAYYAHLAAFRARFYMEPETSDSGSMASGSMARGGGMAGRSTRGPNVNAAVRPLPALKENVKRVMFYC
# B1: 6His-SUMO-RICE2 (natural protein, A. thaliana, UniProt Q9FNG3 1-206, looked up)
# chain: MASFDGPKFKMTDGSYVQTKTIDVGSSTDISPYLSLIREDSILNGNRAVIFDVYWDVGFPETETKTKTSGWSLSSVKLSTRNLCLFLRLPKPFHDNLKDLYRFFASKFVTFVGVQIEEDLDLLRENHGLVIRNAINVGKLAAEARGTLVLEFLGTRELAHRVLWSDLGQLDSIEAKWEKAGPEEQLEAAAIEGWLIVNVWDQLSDE
# notes: RICE2 (At5g06450; AtDECP), A. thaliana; open reading frame in pET28a-SUMO-DC; also called AtDECP; source: E. coli BL21 (DE3), purified (Ni-NTA); not shown: His6, N-terminal, kept; SUMO, N-terminal, kept
# B2: RICE2, purified recombinant (SUMO tag cleaved) (enzyme, A. thaliana, UniProt Q9FNG3 1-206, looked up)
# chain: B1 chain
# notes: RICE2 (At5g06450; AtDECP), A. thaliana; full-length cDNA in pET28a-SUMO (BamHI/SacI); also called AtDECP; source: E. coli BL21 (DE3), purified (Ni-NTA, SUMO protease cleavage, SEC); not shown: His6, N-terminal, cleaved; SUMO, N-terminal, cleaved
# B3: 6His-SUMO-RICE1 (natural protein, A. thaliana, UniProt Q9SF21 1-200, looked up)
# chain: MASFDGQGFMMVDNSWVQTKAIDVESTTDISPYLSKILEDSVWNGNRSIVFDVYWDVKSVSTKSEWRLCSVKFSTKNFCLFLRLPNPFCDNLKDLYRFFASKFVTFVGVQIQEDLALLKENHGIVIRSSLEIGKLAAKARGTPIVEFLGTRELAHKILWYDMSRLDSIQSKWDEASSNDRLEAAAIEGWLIFNVYDQLQQ
# notes: RICE1 (At3g11770), A. thaliana; open reading frame in pET28a-SUMO-DC; source: E. coli BL21 (DE3), purified (Ni-NTA); not shown: His6, N-terminal, kept; SUMO, N-terminal, kept
# B4: RICE1 Y54S, purified recombinant (enzyme, A. thaliana, UniProt Q9SF21 1-200, looked up)
# chain: B3 chain with Y54S
# notes: RICE1 (At3g11770), A. thaliana; point mutant made on pET28a-SUMO-RICE1; source: E. coli BL21 (DE3), purified (Ni-NTA, SUMO protease cleavage, SEC); not shown: His6, N-terminal, cleaved; SUMO, N-terminal, cleaved
# B5: RICE1 E187A, purified recombinant (enzyme, A. thaliana, UniProt Q9SF21 1-200, looked up)
# chain: B3 chain with E187A
# notes: as for B4
# B6: RICE1 D52A, purified recombinant (enzyme, A. thaliana, UniProt Q9SF21 1-200, looked up)
# chain: B3 chain with D52A
# notes: as for B4
# B7: MBP-AGO10 PAZ (337-474) (domain or fragment, A. thaliana, UniProt Q9XGW1 337-474, looked up)
# chain: LPVIEFVAQLLGKDVLSKPLSDSDRVKIKKGLRGVKVEVTHRANVRRKYRVAGLTTQPTRELMFPVDENCTMKSVIEYFQEMYGFTIQHTHLPCLQVGNQKKASYLPMEACKIVEGQRYTKRLNEKQITALLKVTCQR
# notes: AGO10, A. thaliana, residues 337-474 (PAZ); source: E. coli BL21 (DE3), purified (amylose resin); not shown: MBP, N-terminal, kept
# Key:
# MBP-AGO10 NC (127-336) = biological target: T1, MBP-AGO10 NC (127-336); assay: pull-down; His-SUMO baits and MBP-fusion preys purified from E. coli; prey preabsorbed on Ni-NTA resin, then incubated with bait 1 hr at room temperature and captured on Ni-NTA; 50 mM Tris pH 7.5, 150 mM NaCl, 0.2% glycerol, 0.6% Triton X-100, 0.5 mM β-mercaptoethanol; six washes with 300 mM NaCl; blot with anti-MBP; details: both partners purified
# MBP-AGO10 = biological target: T2, MBP-AGO10; assay: as above; details: both partners purified
# MBP-AGO10 PIWI (625-988) = biological target: T3, MBP-AGO10 PIWI (625-988); assay: as above; details: both partners purified
# MBP-AGO1 = biological target: T4, MBP-AGO1; assay: as above; details: both partners purified
# [1] = biological target: the molecule itself; assay: SEC; purified proteins after SUMO protease cleavage on Superdex75 (1.6 x 60), 20 mM Tris-HCl pH 7.5, 150 mM NaCl
# 6His-SUMO-RICE1 = biological target: B3; assay: pull-down; His-SUMO baits and MBP-fusion preys purified from E. coli; prey preabsorbed on Ni-NTA resin, then incubated with bait 1 hr at room temperature and captured on Ni-NTA; 50 mM Tris pH 7.5, 150 mM NaCl, 0.2% glycerol, 0.6% Triton X-100, 0.5 mM β-mercaptoethanol; six washes with 300 mM NaCl; blot with anti-MBP; details: both partners purified
# 6His-SUMO-RICE2 = biological target: B1; assay: as above; details: both partners purified
binder,measurement,setting,value
B1,binding result,MBP-AGO10 NC (127-336),binds
same,binding result,MBP-AGO10,binds
same,binding result,MBP-AGO10 PIWI (625-988),binds
same,binding result,MBP-AGO1,binds
B2,stoichiometry N,[1],~6
B3,binding result,MBP-AGO10 NC (127-336),binds
same,binding result,MBP-AGO10,binds
same,binding result,MBP-AGO10 PIWI (625-988),binds
same,binding result,MBP-AGO1,binds
B4,binding result,[1],binds
B5,binding result,[1],binds
B6,binding result,[1],binds
B7,binding result,6His-SUMO-RICE1,binds
same,binding result,6His-SUMO-RICE2,binds
